This note sets out measurements from article PMC5716589, “The nucleoid as a scaffold for the assembly of bacterial signaling complexes” (PLoS Genetics, 2017).

As usually defined, the stoichiometry N is the number of molecules, sites or subunits per partner or assembly.

Series [1] deals with the molecule itself. The series is described as follows: SEC-MALS; 100 μl of 2 mg/ml (45 μM) FrzCD injected on a BioRad EnRich650 column in 50 mM Tris, 50 mM NaCl, pH 8.0, 0.4 ml/min; Wyatt Dawn Heleos II, Debye model. For orientation: SEC sorts molecules by how far they enter the pores of the column.
Another series has as its target T1, FrzCD-(His)6 (Myxococcus xanthus, UniProt P43500 1-417).
T1 sequence: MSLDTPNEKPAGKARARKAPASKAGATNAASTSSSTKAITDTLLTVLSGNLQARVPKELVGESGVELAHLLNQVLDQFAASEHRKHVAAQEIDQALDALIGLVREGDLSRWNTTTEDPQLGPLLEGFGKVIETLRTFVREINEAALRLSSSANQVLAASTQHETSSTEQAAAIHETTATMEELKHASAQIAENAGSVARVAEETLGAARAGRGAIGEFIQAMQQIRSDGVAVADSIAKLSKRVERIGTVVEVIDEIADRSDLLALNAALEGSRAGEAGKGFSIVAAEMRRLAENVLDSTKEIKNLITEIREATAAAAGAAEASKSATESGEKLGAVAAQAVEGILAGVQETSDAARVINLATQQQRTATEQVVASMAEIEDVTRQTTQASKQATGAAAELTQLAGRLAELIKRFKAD
The experiment in a line: EMSA; 300 nM DNA; EMSA Fig 3: 10 mM Tris-HCl pH 8, 60 mM NaCl, 10% glycerol, 4 C, 40 min; EMSA S4 Fig: 50 mM Tris pH 7.4, 50 mM NaCl, 1 mM DTT, 10% glycerol, 25 C, 20 min; BLI: PBS pH 7.5, 0.001% Tween-20, 25 C (6His-FrzCDΔ1-130 used as reference subtraction). The conditions noted are these: protein: recombinant; tags: C-terminal 6His; chain copies: 2; blunt. (In general: Mobility shift assays separate free from complexed probe on a gel.)

B1: C-terminal-tagged FrzCD-(His)6 (receptor, Myxococcus xanthus, UniProt P43500 1-417, looked up)
chain: MSLDTPNEKPAGKARARKAPASKAGATNAASTSSSTKAITDTLLTVLSGNLQARVPKELVGESGVELAHLLNQVLDQFAASEHRKHVAAQEIDQALDALIGLVREGDLSRWNTTTEDPQLGPLLEGFGKVIETLRTFVREINEAALRLSSSANQVLAASTQHETSSTEQAAAIHETTATMEELKHASAQIAENAGSVARVAEETLGAARAGRGAIGEFIQAMQQIRSDGVAVADSIAKLSKRVERIGTVVEVIDEIADRSDLLALNAALEGSRAGEAGKGFSIVAAEMRRLAENVLDSTKEIKNLITEIREATAAAAGAAEASKSATESGEKLGAVAAQAVEGILAGVQETSDAARVINLATQQQRTATEQVVASMAEIEDVTRQTTQASKQATGAAAELTQLAGRLAELIKRFKAD
notes: FrzCD, cytoplasmic chemoreceptor (MCP) of the Frz chemosensory system of Myxococcus xanthus; the names of the deletion mutants (Δ131–417) imply 417 residues; also called FrzCD-H6; 6His-FrzCD (as called in the results for this experiment); source: E. coli BL21-AI, purified (HisTrap FF, MonoQ ion exchange)
Regarding B1, the “stoichiometry N” value in series [1] worked out at 2.

B2: Oligo70 (dsDNA)
DNA 1: CTTGCAGTAGAGCTGACCATGATTACGCCATCAGCAGCTCCAGGTCGTACCTCCAGCTACCAATCCCCG
DNA 2: CGGGGATTGGTAGCTGGAGGTACGACCTGGAGCTGCTGATGGCGTAATCATGGTCAGCTCTACTGCAAG
Take B2: in the series with FrzCD-(His)6, the binding result is recorded as “binds”.
